This note sets out measurements from PMC13397619.

B1: NLV2 TCR alpha chain (CDR3α only) (parent)
chain: AGPMKTSYDKVI
partner: MLVPMVATV

In the assay the parent is B1. Briefly: T-Switch: Jurkat TCRβ−/− cells expressing a CDR3 saturation-mutagenesis library, stained with two peptide-HLA-A*02:01 tetramers (original and novel peptide) plus anti-CD3, FACS-sorted into four gates, gDNA sequenced. As to conditions: with HLA-A*02:01 with peptide … (NLV 3-1, the novel peptide), tetramers 1 µg/mL, 30 min on ice, SP, DP and SW gates expanded about 10 days between rounds ('two to three rounds of selection' in the Methods), gate SW: higher = more of the variant in the gate that binds the novel peptide and not the original one = switched binding. Fold enrichment of the CDR3 variant in one FACS gate of a two-tetramer stain, unresolved parent, parent is a CDR3 fragment, scale: fold enrichment, numbering: sequential-on-construct, sequence starts at 1.
Regarding […] (CDR3 as printed); P3G derived by comparing it with the table's wild-type CDR3 AGPMKTSYDKVI, the enrichment was found to be 0. The value for […] (CDR3 as printed); M4Y derived by comparing it with the table's wild-type CDR3 AGPMKTSYDKVI was 0.

Take […] (CDR3 as printed); I12N derived by comparing it with the table's wild-type CDR3 AGPMKTSYDKVI: the enrichment is 0. On to […] (CDR3 as printed); Y8V derived by comparing it with the table's wild-type CDR3 AGPMKTSYDKVI, for which the enrichment came out at 0. With […] (CDR3 as printed); V11Q derived by comparing it with the table's wild-type CDR3 AGPMKTSYDKVI, the enrichment was determined as 0.

Consider […] (CDR3 as printed); M4R derived by comparing it with the table's wild-type CDR3 AGPMKTSYDKVI, for which the enrichment came out at 0.

For […] (CDR3 as printed); D9W derived by comparing it with the table's wild-type CDR3 AGPMKTSYDKVI, the enrichment stood at 0.

With […] (CDR3 as printed); K10H derived by comparing it with the table's wild-type CDR3 AGPMKTSYDKVI, the enrichment amounted to 0. As to […] (CDR3 as printed); K5Y derived by comparing it with the table's wild-type CDR3 AGPMKTSYDKVI, the enrichment was 0. With […] (CDR3 as printed); P3W derived by comparing it with the table's wild-type CDR3 AGPMKTSYDKVI, the enrichment amounted to 0. […] (CDR3 as printed); V11C derived by comparing it with the table's wild-type CDR3 AGPMKTSYDKVI: the enrichment stood at 0. Take […] (CDR3 as printed); K10Q derived by comparing it with the table's wild-type CDR3 AGPMKTSYDKVI: the enrichment turned out to be 0. The figure for […] (CDR3 as printed); V11H derived by comparing it with the table's wild-type CDR3 AGPMKTSYDKVI is 0; for […] (CDR3 as printed); I12W derived by comparing it with the table's wild-type CDR3 AGPMKTSYDKVI it is 0. The figure for […] (CDR3 as printed); M4W derived by comparing it with the table's wild-type CDR3 AGPMKTSYDKVI is 0. The value for […] (CDR3 as printed); G2H derived by comparing it with the table's wild-type CDR3 AGPMKTSYDKVI was 0; that for […] (CDR3 as printed); G2R derived by comparing it with the table's wild-type CDR3 AGPMKTSYDKVI was 0. As to […] (CDR3 as printed); S7C derived by comparing it with the table's wild-type CDR3 AGPMKTSYDKVI, the enrichment turned out to be 0. With […] (CDR3 as printed); T6H derived by comparing it with the table's wild-type CDR3 AGPMKTSYDKVI, the enrichment is 0. Take […] (CDR3 as printed); Y8N derived by comparing it with the table's wild-type CDR3 AGPMKTSYDKVI: the enrichment is 0. The figure for […] (CDR3 as printed); D9T derived by comparing it with the table's wild-type CDR3 AGPMKTSYDKVI is 0.

With […] (CDR3 as printed); G2S derived by comparing it with the table's wild-type CDR3 AGPMKTSYDKVI, the enrichment was found to be 0. For […] (CDR3 as printed); D9M derived by comparing it with the table's wild-type CDR3 AGPMKTSYDKVI, the enrichment came out at 0. Consider […] (CDR3 as printed); V11A derived by comparing it with the table's wild-type CDR3 AGPMKTSYDKVI, for which the enrichment came to 0. […] (CDR3 as printed); D9S derived by comparing it with the table's wild-type CDR3 AGPMKTSYDKVI: the enrichment worked out at 0.

In the case of […] (CDR3 as printed); I12S derived by comparing it with the table's wild-type CDR3 AGPMKTSYDKVI, the enrichment was 0. The value for […] (CDR3 as printed); K10P derived by comparing it with the table's wild-type CDR3 AGPMKTSYDKVI was 0.

With […] (CDR3 as printed); D9I derived by comparing it with the table's wild-type CDR3 AGPMKTSYDKVI, the enrichment turned out to be 0. On to […] (CDR3 as printed); T6V derived by comparing it with the table's wild-type CDR3 AGPMKTSYDKVI, for which the enrichment came to 0. The value for […] (CDR3 as printed); P3F derived by comparing it with the table's wild-type CDR3 AGPMKTSYDKVI was 0. On to […] (CDR3 as printed); D9F derived by comparing it with the table's wild-type CDR3 AGPMKTSYDKVI, for which the enrichment is 0. In the case of […] (CDR3 as printed); M4I derived by comparing it with the table's wild-type CDR3 AGPMKTSYDKVI, the enrichment turned out to be 0.

In the case of […] (CDR3 as printed); T6F derived by comparing it with the table's wild-type CDR3 AGPMKTSYDKVI, the enrichment stood at 0.

For the variant […] (CDR3 as printed); S7G derived by comparing it with the table's wild-type CDR3 AGPMKTSYDKVI, the enrichment was 0. The value for […] (CDR3 as printed); M4T derived by comparing it with the table's wild-type CDR3 AGPMKTSYDKVI was 0; that for […] (CDR3 as printed); I12A derived by comparing it with the table's wild-type CDR3 AGPMKTSYDKVI was 0. […] (CDR3 as printed); K10W derived by comparing it with the table's wild-type CDR3 AGPMKTSYDKVI: the enrichment stood at 0. The figure for […] (CDR3 as printed); Y8Q derived by comparing it with the table's wild-type CDR3 AGPMKTSYDKVI is 27.8; for […] (CDR3 as printed); K10E derived by comparing it with the table's wild-type CDR3 AGPMKTSYDKVI it is 0.402. The figure for […] (CDR3 as printed); V11F derived by comparing it with the table's wild-type CDR3 AGPMKTSYDKVI is 0. The figure for […] (CDR3 as printed); K10F derived by comparing it with the table's wild-type CDR3 AGPMKTSYDKVI is 0; for […] (CDR3 as printed); T6Y derived by comparing it with the table's wild-type CDR3 AGPMKTSYDKVI it is 0. As for […] (CDR3 as printed); K5H derived by comparing it with the table's wild-type CDR3 AGPMKTSYDKVI, the enrichment came to 0. For the variant […] (CDR3 as printed); A1Q derived by comparing it with the table's wild-type CDR3 AGPMKTSYDKVI, the enrichment was 0. With […] (CDR3 as printed); V11L derived by comparing it with the table's wild-type CDR3 AGPMKTSYDKVI, the enrichment is 0. The value for […] (CDR3 as printed); M4K derived by comparing it with the table's wild-type CDR3 AGPMKTSYDKVI was 0; that for […] (CDR3 as printed); T6D derived by comparing it with the table's wild-type CDR3 AGPMKTSYDKVI was 0; that for […] (CDR3 as printed); T6S derived by comparing it with the table's wild-type CDR3 AGPMKTSYDKVI was 0. The figure for […] (CDR3 as printed); P3A derived by comparing it with the table's wild-type CDR3 AGPMKTSYDKVI is 0; for […] (CDR3 as printed); V11P derived by comparing it with the table's wild-type CDR3 AGPMKTSYDKVI it is 0; for […] (CDR3 as printed); A1Y derived by comparing it with the table's wild-type CDR3 AGPMKTSYDKVI it is 0.533. The value for […] (CDR3 as printed); D9G derived by comparing it with the table's wild-type CDR3 AGPMKTSYDKVI was 0.

[…] (CDR3 as printed); S7Q derived by comparing it with the table's wild-type CDR3 AGPMKTSYDKVI: the enrichment is 0.

For […] (CDR3 as printed); Y8E derived by comparing it with the table's wild-type CDR3 AGPMKTSYDKVI, the enrichment was 52.6.

Take […] (CDR3 as printed); A1E derived by comparing it with the table's wild-type CDR3 AGPMKTSYDKVI: the enrichment is 0. The figure for […] (CDR3 as printed); M4V derived by comparing it with the table's wild-type CDR3 AGPMKTSYDKVI is 0. […] (CDR3 as printed); I12T derived by comparing it with the table's wild-type CDR3 AGPMKTSYDKVI: the enrichment was 0. For the variant […] (CDR3 as printed); K10S derived by comparing it with the table's wild-type CDR3 AGPMKTSYDKVI, the enrichment stood at 1.59. […] (CDR3 as printed); M4G derived by comparing it with the table's wild-type CDR3 AGPMKTSYDKVI: the enrichment stood at 0. The value for […] (CDR3 as printed); P3N derived by comparing it with the table's wild-type CDR3 AGPMKTSYDKVI was 0; that for […] (CDR3 as printed); D9V derived by comparing it with the table's wild-type CDR3 AGPMKTSYDKVI was 0; that for […] (CDR3 as printed); M4A derived by comparing it with the table's wild-type CDR3 AGPMKTSYDKVI was 0. For […] (CDR3 as printed); V11S derived by comparing it with the table's wild-type CDR3 AGPMKTSYDKVI, the enrichment came to 0. […] (CDR3 as printed); T6W derived by comparing it with the table's wild-type CDR3 AGPMKTSYDKVI: the enrichment turned out to be 0. The value for […] (CDR3 as printed); K10T derived by comparing it with the table's wild-type CDR3 AGPMKTSYDKVI was 0. As to […] (CDR3 as printed); G2K derived by comparing it with the table's wild-type CDR3 AGPMKTSYDKVI, the enrichment came out at 0. The value for […] (CDR3 as printed); S7P derived by comparing it with the table's wild-type CDR3 AGPMKTSYDKVI was 0; that for […] (CDR3 as printed); K5W derived by comparing it with the table's wild-type CDR3 AGPMKTSYDKVI was 0. In the case of […] (CDR3 as printed); K10Y derived by comparing it with the table's wild-type CDR3 AGPMKTSYDKVI, the enrichment was found to be 0.
